Laboratory results: publication PMC2843395 (Journal of molecular biology, 2010)
Like-named read-outs stand apart in the source and are kept apart here. Blank lines part the entries; values can stand above or below the molecule they belong to. *: point of attachment. TAMRA = 5-carboxytetramethylrhodamine, CN(C)c1ccc2c(-c3ccc(C(=O)*)cc3C(=O)[O-])c3ccc(=[N+](C)C)cc-3oc2c1

B2: S100B (wild-type, recombinant) (natural protein, bovine)
chain: MSELEKAVVALIDVFHQYSGREGDKHKLKKSELKELINNELSHFLEEIKEQEVVDKVMETLDSDGDGECDFQEFMAFVAMITTACHEFFEHE

Key:
TAMRA-TRTK12-am = experiment: fluorescence polarisation
S100B (tight site, EF2) [1] = target: T1, S100B (tight site, EF2) (Bos taurus, UniProt P02638); details: p53^367–388; ref [21]; cited from earlier work
T1 sequence (P02638 1-92): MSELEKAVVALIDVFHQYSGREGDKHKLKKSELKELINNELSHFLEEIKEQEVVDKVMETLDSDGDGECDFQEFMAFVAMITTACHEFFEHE

S100B (tight site, EF2) [2] = target: T1, S100B (tight site, EF2); details: p53^367–388; ref [21]; cited from earlier work; remark: listed apart in the source
E72A mutant of S100B = experiment: fluorescence polarisation
[3] = target: S100B (Rattus norvegicus) (UniProt P04631); details: cited from earlier work
[4] = target: B2; experiment: crystal structure
[5] = target: B2; experiment: fluorescence polarisation
[6] = target: B2; experiment: fluorescence polarisation; remark: listed apart in the source
[7] = target: B2; experiment: fluorescence polarisation; remark: listed apart in the source
[8] = target: B2; experiment: fluorescence polarisation; remark: listed apart in the source
crystal structure = target: the molecule itself; experiment: crystal structure

Molecule: p53^367–388: peptide derived from the negative regulatory domain of p53 (residues 367–388)
Fold increase in Ca2+ affinity of S100B EF2 with p53 peptide bound (S100B (tight site, EF2) [1]): 3 fold
Fold increase in Mn2+ binding of S100B with p53 peptide bound (S100B (tight site, EF2) [2]): 3 fold

Molecule: S100B (from UniProt P04631)
Kd [3]: < 1 nM

Molecule: B2
stoichiometry N (crystal structure): 2

Results, then the molecule that gave them:

Kd (TAMRA-TRTK12-am): 16800 nM
Molecule: E72A mutant of S100B (natural protein)

Kapp (E72A mutant of S100B): 110 µM
Kd (E72A mutant of S100B): 3200 nM
Molecule: TRTK-12 peptide (derived from the actin capping protein CapZ, residues 265-276)

stoichiometry N [4]: 1 per S100B subunit
Kd [5]: 2900 ± 500 nM
Kd [6]: 3000 ± 1000 nM
Molecule: TRTKIDWNKILS [TRTK-12 peptide (derived from the actin capping protein CapZ, residues 265-276)]

Kd [7]: 6000 ± 2000 nM
Kd [8]: 1200 ± 200 nM
B1: TAMRA-TRTK12-am (peptide)
peptide: {TAMRA}-TRTKIDWNKILS-NH2
SMILES: CC[C@H](C)[C@H](NC(=O)[C@H](CCCCN)NC(=O)[C@H](CC(N)=O)NC(=O)[C@H](Cc1c[nH]c2ccccc12)NC(=O)[C@H](CC(=O)O)NC(=O)[C@@H](NC(=O)[C@H](CCCCN)NC(=O)[C@@H](NC(=O)[C@H](CCCNC(=N)N)NC(=O)[C@@H](NC(=O)c1ccc(-c2c3ccc(=[N+](C)C)cc-3oc3cc(N(C)C)ccc23)c(C(=O)[O-])c1)[C@@H](C)O)[C@@H](C)O)[C@@H](C)CC)C(=O)N[C@@H](CC(C)C)C(=O)N[C@@H](CO)C(N)=O
